Consider 76 sequences from the supplement of paper PMC7877785.

± gives the uncertainty stated by the source.

This series is described as follows: self-splicing fitness, log relative to wild type (ln ratio); higher = more splicing; Tetrahymena group I intron in knt gene, E. coli kanamycin selection, DiMSum; sequences stand for … in CUCUCU…GGAGGGAAAAGUUAUCAGGCAUGCACCUGGUAGCUAGUCUUUAAACCAAUAGAUUGCAUCGGUUUAAAAGGCAAGACCGUCAAAUUGCGGGAAAGGGGUCAACAGCCGUUCAGUACCAAGUCUCAGGGGAAACUUUGAGAUGGCCUUGCAAAGGGUAUGGUAAUAAGCUGACGGACAUGGUCCUAACCACGCAGCCAAGUCCUAAGUCAACAGAUCUUCUGUUGAUAUGGAUGCAGUUCACAGACUAAAUGUCGGUCGGGGAAGAUGUAUUCUUCUCAUAAGAUAUAGUCGGACCUCUCCUUAAUGGGAGCUAGCGGAUGAAGUGAUGCAACACUGGAGCCGCUGGGAACUAAUUUGUAUGCGAAAGUAUAUUGAUUAGUUUUGGAGUACUCGUGGUCG
In a few lines: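 Colonies from six replicate transformations of E. coli BL21(DE3) were pooled and amplicon-sequenced on an Illumina HiSeq 2500. The library placed an intron with all eight P1ex-region nucleotides randomised inside the knt kanamycin-resistance gene on pET-22b(+), and cells grew overnight at 37°C or 30°C on LB agar with or without 25 μg/mL kanamycin (plus 100 μg/mL carbenicillin, 50 μM IPTG, 0.2% rhamnose). Fitness is the DiMSum error-weighted combination of wild-type-normalised replicate fold changes, kanamycin versus none.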

On to UUAAAGCAAUAUUACGCUCC, for which the “self-splicing fitness (ln)” value by setting is: (30 °C) -1.79 ± 0.19; (37 °C) -1.08 ± 0.24.
The matching figures for AUCAAGCAAUAUUACGUGCC: -1.51 ± 0.14 and -0.426 ± 0.16.
The matching figures for UUACAGCAAUAUUACGAUGA: -0.445 ± 0.06 and 0.596 ± 0.078.
ACUAAGCAAUAUUACGCGCU: the “self-splicing fitness (ln)” value is -0.324 ± 0.093 (30 °C) and 0.362 ± 0.13 (37 °C).
The like results for CGGAAGCAAUAUUACGACGA were, in that order, -1.75 ± 0.21 and -0.502 ± 0.15.
The matching figures for ACCGAGCAAUAUUACGUCUA: -3.65 ± 0.28 and -2.86 ± 0.17.
The like results for GUAAAGCAAUAUUACGACCA were, in that order, -0.123 ± 0.093 and 0.27 ± 0.13.
As to UGGCAGCAAUAUUACGAACU, the “self-splicing fitness (ln)” value is -1.29 ± 0.12 (30 °C) and -0.471 ± 0.16 (37 °C).
Regarding GACUAGCAAUAUUACGUACG, the “self-splicing fitness (ln)” value (30 °C) was -0.653 ± 0.066 and the “self-splicing fitness (ln)” value (37 °C) was -0.585 ± 0.098.
For the sequence GACAAGCAAUAUUACGCCGC, the “self-splicing fitness (ln)” value is, setting by setting: (30 °C) -3.31 ± 0.4; (37 °C) -2.97 ± 0.43.
Consider CAAAAGCAAUAUUACGUCCC, for which the “self-splicing fitness (ln)” value was -2.65 ± 0.26 (30 °C) and -2.26 ± 0.42 (37 °C).
With UUGCAGCAAUAUUACGCAGC, the “self-splicing fitness (ln)” value runs as follows: (30 °C) -2.41 ± 0.41; (37 °C) -1.83 ± 0.3.
The like results for AUCGAGCAAUAUUACGAGAU were, in that order, -2.58 ± 0.13 and -2.01 ± 0.17.
The matching figures for GAAUAGCAAUAUUACGUGCG: -1.2 ± 0.074 and -0.181 ± 0.094.
The like results for AAUUAGCAAUAUUACGUCGC were, in that order, -3.08 ± 0.27 and -1.38 ± 0.21.
As to CAUAAGCAAUAUUACGUGUC, the “self-splicing fitness (ln)” value was -3.62 ± 0.2 (30 °C) and -2.55 ± 0.17 (37 °C).
As to AAUCAGCAAUAUUACGGUUU, the “self-splicing fitness (ln)” value reads like this: (30 °C) -1.35 ± 0.056; (37 °C) -0.0658 ± 0.064.
As to GUCAAGCAAUAUUACGACAU, the “self-splicing fitness (ln)” value reads like this: (30 °C) -1.673 ± 0.012; (37 °C) -0.579 ± 0.032.
The like results for UACAAGCAAUAUUACGGUGA were, in that order, -1.28 ± 0.082 and -0.89 ± 0.1.
The like results for GAGAAGCAAUAUUACGCAAA were, in that order, -3.07 ± 0.14 and -1.8 ± 0.15.
The like results for CGUCAGCAAUAUUACGGAUU were, in that order, -1.35 ± 0.1 and -0.245 ± 0.1.
In the case of AUAUAGCAAUAUUACGAACC, the “self-splicing fitness (ln)” value runs as follows: (30 °C) -1 ± 0.27; (37 °C) 0.205 ± 0.24.
UGGAAGCAAUAUUACGGAAU: the “self-splicing fitness (ln)” value is -2.76 ± 0.12 (30 °C) and -1.01 ± 0.096 (37 °C).
The like results for AACAAGCAAUAUUACGACAG were, in that order, -2.25 ± 0.078 and -1.76 ± 0.09.
The matching figures for CGACAGCAAUAUUACGUACG: -3.63 ± 0.21 and -2.92 ± 0.38.
The like results for GCAUAGCAAUAUUACGGACA were, in that order, -1.74 ± 0.15 and -0.572 ± 0.14.
For AUCUAGCAAUAUUACGGGAU, the “self-splicing fitness (ln)” value runs as follows: (30 °C) -2.92 ± 0.2; (37 °C) -2.28 ± 0.22.
GCCAAGCAAUAUUACGAAUU: the “self-splicing fitness (ln)” value by setting is: (30 °C) -3.39 ± 0.13; (37 °C) -1.51 ± 0.1.
The like results for AGGCAGCAAUAUUACGCUCC were, in that order, -3.69 ± 0.4 and -2.01 ± 0.33.
The like results for GGAUAGCAAUAUUACGUCGA were, in that order, -0.726 ± 0.1 and -0.0349 ± 0.098.
The like results for UCGUAGCAAUAUUACGAACU were, in that order, -3.21 ± 0.38 and -2.63 ± 0.33.
For the sequence GCUUAGCAAUAUUACGUGAC, the “self-splicing fitness (ln)” value by setting is: (30 °C) -1.54 ± 0.09; (37 °C) -1.08 ± 0.13.
The matching figures for GCUUAGCAAUAUUACGUCCG: -1.68 ± 0.19 and -1.43 ± 0.24.
The matching figures for AUCUAGCAAUAUUACGGGUA: -1.97 ± 0.15 and -1.49 ± 0.12.
As to UACAAGCAAUAUUACGACGC, the “self-splicing fitness (ln)” value was -2.93 ± 0.25 (30 °C) and -1.67 ± 0.23 (37 °C).
The matching figures for GACCAGCAAUAUUACGGAUA: -0.244 ± 0.058 and 0.0596 ± 0.075.
The like results for GGGAAGCAAUAUUACGUGGA were, in that order, -2 ± 0.17 and -2.34 ± 0.29.
The matching figures for UGACAGCAAUAUUACGACCG: 0.701 ± 0.16 and 0.698 ± 0.19.
Consider CGACAGCAAUAUUACGGAGC, for which the “self-splicing fitness (ln)” value runs as follows: (30 °C) -2.83 ± 0.19; (37 °C) -3.04 ± 0.25.
The matching figures for GGCGAGCAAUAUUACGAUCA: -1.18 ± 0.17 and -0.735 ± 0.18.
The matching figures for UGCUAGCAAUAUUACGGUGA: -1.42 ± 0.12 and -0.513 ± 0.13.
The like results for AGCAAGCAAUAUUACGUUAC were, in that order, -3.47 ± 0.23 and -2.38 ± 0.21.
As for AAUCAGCAAUAUUACGUUGU, the “self-splicing fitness (ln)” value by setting is: (30 °C) -2.38 ± 0.1; (37 °C) -1.68 ± 0.12.
The matching figures for GCAUAGCAAUAUUACGAAAG: -2.72 ± 0.2 and -2.69 ± 0.24.
The matching figures for UUGUAGCAAUAUUACGCGCA: -0.824 ± 0.17 and 0.43 ± 0.19.
The matching figures for CUAAAGCAAUAUUACGCGGA: -3.85 ± 0.3 and -3.62 ± 0.24.
On to GCAGAGCAAUAUUACGGACU, for which the “self-splicing fitness (ln)” value reads like this: (30 °C) -2.18 ± 0.34; (37 °C) -1.9 ± 0.21.
The like results for CCUGAGCAAUAUUACGCGGA were, in that order, -2.9 ± 0.25 and -1.17 ± 0.18.
The matching figures for CGAUAGCAAUAUUACGUGCU: -3.92 ± 0.34 and -1.34 ± 0.17.
CAACAGCAAUAUUACGCAGC: the “self-splicing fitness (ln)” value is, setting by setting: (30 °C) -4.4 ± 0.25; (37 °C) -2.75 ± 0.29.
Take UAUUAGCAAUAUUACGGCAC: the “self-splicing fitness (ln)” value was -1.88 ± 0.21 (30 °C) and -0.983 ± 0.35 (37 °C).
In the case of GCGGAGCAAUAUUACGCUUC, the “self-splicing fitness (ln)” value (30 °C) is -2.09 ± 0.38.
For the sequence GCACAGCAAUAUUACGGCUG, the “self-splicing fitness (ln)” value is, setting by setting: (30 °C) -3.49 ± 0.13; (37 °C) -2.4 ± 0.14.
For the sequence CGAAAGCAAUAUUACGAUUC, under “37 °C”, the “self-splicing fitness (ln)” value is -2.13 ± 0.26.
For UCAUAGCAAUAUUACGGAUC, the “self-splicing fitness (ln)” value was -3.73 ± 0.28 (30 °C) and -2.38 ± 0.22 (37 °C).
CUGAAGCAAUAUUACGCUCU: the “self-splicing fitness (ln)” value is, setting by setting: (30 °C) -3.29 ± 0.25; (37 °C) -3.3 ± 0.47.
The like results for AGAAAGCAAUAUUACGAAGG were, in that order, -3.59 ± 0.25 and -1.74 ± 0.2.
The like results for UGACAGCAAUAUUACGCGGG were, in that order, -2.59 ± 0.17 and -1.24 ± 0.14.
With UUAGAGCAAUAUUACGUAGC, under “30 °C”, the “self-splicing fitness (ln)” value was -2.12 ± 0.24.
With UAGUAGCAAUAUUACGUCUU, the “self-splicing fitness (ln)” value is, setting by setting: (30 °C) -0.75 ± 0.097; (37 °C) -0.388 ± 0.11.
For GAGAAGCAAUAUUACGUCUC, the “self-splicing fitness (ln)” value by setting is: (30 °C) -4.38 ± 0.46; (37 °C) -2.39 ± 0.24.
As for UCCUAGCAAUAUUACGACGA, the “self-splicing fitness (ln)” value runs as follows: (30 °C) 0.168 ± 0.12; (37 °C) 0.868 ± 0.17.
In the case of GUUGAGCAAUAUUACGUGAA, the “self-splicing fitness (ln)” value (37 °C) is -1.76 ± 0.22.
For UUCAAGCAAUAUUACGUGCA, the “self-splicing fitness (ln)” value is, setting by setting: (30 °C) -0.545 ± 0.047; (37 °C) -0.00601 ± 0.065.
The matching figures for AAUUAGCAAUAUUACGCUUA: -0.993 ± 0.12 and 0.247 ± 0.14.
The matching figures for CACAAGCAAUAUUACGUUUA: -2.95 ± 0.15 and -1.95 ± 0.13.
The like results for CCGAAGCAAUAUUACGCGCA were, in that order, -2.85 ± 0.28 and -1.95 ± 0.21.
Take AAACAGCAAUAUUACGUACA: the “self-splicing fitness (ln)” value is -1.23 ± 0.073 (30 °C) and -0.0501 ± 0.082 (37 °C).
The like results for GAUAAGCAAUAUUACGUAGG were, in that order, -3.01 ± 0.13 and -1.86 ± 0.15.
The like results for CGACAGCAAUAUUACGAACC were, in that order, -3.27 ± 0.27 and -0.556 ± 0.2.
The like results for UUAAAGCAAUAUUACGUCUU were, in that order, -1.23 ± 0.082 and -0.988 ± 0.12.
As to CGACAGCAAUAUUACGGGGU, the “self-splicing fitness (ln)” value by setting is: (30 °C) -4.03 ± 0.17; (37 °C) -3.01 ± 0.17.
The like results for GCCAAGCAAUAUUACGACUA were, in that order, -1.82 ± 0.17 and -1.77 ± 0.16.
The like results for ACUCAGCAAUAUUACGUUAA were, in that order, -2.35 ± 0.13 and -1.41 ± 0.12.
Regarding GAACAGCAAUAUUACGAACG, the “self-splicing fitness (ln)” value by setting is: (30 °C) -1.21 ± 0.1; (37 °C) -0.566 ± 0.14.
As for CAGGAGCAAUAUUACGGGCU, the “self-splicing fitness (ln)” value is -4.13 ± 0.39 (30 °C) and -2.17 ± 0.34 (37 °C).
